Source: patent publication US20250011410A1 (INVETX, published 2025)
Substitutions are numbered along the chain they refer to. In names and notes the source's numbering stands. Several values for one entry are separate records, joined by “and”; a condition that tells them apart may be missing. Equal entries are not always repeated.

B1: felinized clone 101 (antibody, V domains shown)
VH: DVQLVESGGDLVKPGGSLRLTCVASGLSLTSSSMSWVRQAPGKGLQWVSTIYSNGGTYYTDSVKGRFTISKDNAENTLYLQMNNLKTEDTATYYCASIYYYDADYLHWYFDFWGQGALVTVSS
VL: EIQMTQSPTSLSASVGDRVTITCRASEGISNNLSWYQQTPGKAPKLLIYATSNLHSGVPSRFSGSGSGTDFTLTISSLQPEDFATYYCQQGYKWPLTFGGGTKLEIT
B2: felinized clone 101 (IgG) (antibody, V domains shown)
VH: B1 VH
VL: B1 VL
B3: SC-184_102 (antibody, IgG1a, V domains shown)
VH: B1 VH with S32N, Y52W, D102E, D104E
VL: B1 VL with E27K, T51Q
notes: also called SC-102
B4: AHF17602 (antibody, V domains shown)
VH: B1 VH with S35V, G55R
VL: B1 VL with S30A
notes: also called AIF17602
B5: SC-184_110-Arg (antibody, V domains shown)
VH: B1 VH with S32A, G55R, D102E, D104E
VL: B1 VL with N31K, S52D, Y92W
notes: SC-184_110 containing the G55R mutation in VH; feline antibody captured on an anti-feline chip
B6: SC-184_76 (antibody, IgG1a, V domains shown)
VH: B1 VH with S32D, I51L, Y52W, D102E
VL: B1 VL with S30A, Y92F
B7: SC-184_110 (antibody, IgG1a, V domains shown)
VH: B1 VH with S32A, D102E, D104E
VL: B1 VL with N31K, S52D, Y92W
B8: SC-184_76 (antibody, IgG1a, V domains shown)
VH: B1 VH with S32D, I51L, Y52W, D102E
VL: B1 VL with S30A, Y92F
B9: SC-184_102 (antibody, IgG1a, V domains shown)
VH: B1 VH with S32N, Y52W, D102E, D104E
VL: B1 VL with E27K, T51Q
B10: SC-184_102-Arg (antibody, V domains shown)
VH: B1 VH with S32N, Y52W, G55R, D102E, D104E
VL: B1 VL with E27K, T51Q
notes: SC-184_102 containing the G55R mutation in VH; feline antibody captured on an anti-feline chip
B11: SC-184_76-Arg (antibody, V domains shown)
VH: B1 VH with S32D, I51L, Y52W, G55R, D102E
VL: B1 VL with S30A, Y92F
notes: SC-184_76 containing the G55R mutation in VH; feline antibody captured on an anti-feline chip
B12: SC-184_110 (antibody, IgG1a, V domains shown)
VH: B1 VH with S32A, D102E, D104E
VL: B1 VL with N31K, S52D, Y92W
notes: also called SC-110
B13: canine NGF tagged at the C-terminus with the Flag tag (ligand)
chain: SSSHPVFHRGEFSVCDSVSVWVGDKTTATDIKGKEVMVLGEVNINNSVFKQYFFETKCRDPTPVDSGCRGIDSKHWNSYCTTTHTFVKALTMDGKQAAWRFIRIDTACVCVLSRKAGRRADYKDDDDK
notes: Baculovirus expression; also called feline NGF (processed form identical)

Key:
[1] = molecular target: B13; assay: SPR, antibody captured on goat anti-cat IgG, single cycle kinetics, NGF analyte
[2] = molecular target: T1, canine NGF tagged at the C-terminus with the Flag tag (canine, UniProt A0A8I3PYI3 122-241); assay: SPR, IgG amine-coupled to HC30M chip, NGF analyte
T1 construct: mature; Expressed with baculovirus technology; also called feline NGF (processed form identical)

[3] = molecular target: T2, canine NGF tagged at the C-terminus with the Flag tag (canine, UniProt A0A8I3PYI3 122-241); assay: SPR, Biacore T200; antibody captured on anti-feline CM5 chip, NGF as analyte; 1:1 model
T2 construct: mature; 'mature' rests on the words 'processed form'; also called feline NGF (processed form identical)

[4] = molecular target: T3, canine TrkA-Fc (canine; human, UniProt A0A8I3P078 33-423); assay: SPR, TrkA-Fc captured on anti-human Fc chip, NGF analyte
T3 construct: extracellular domain; also called Trk-Fc; canine TrkA in a dimer format; not shown: human IgG1 Fc, UniProtKB P01857

[5] = molecular target: T4, canine p75-Fc (canine; human); assay: SPR, p75-Fc captured on anti-human Fc chip, NGF analyte
T4 construct: extracellular domain; also called canine p75 in a dimer format; not shown: human IgG1 Fc, UniProtKB P01857

T3 sequence (A0A8I3P078 entry or part of it): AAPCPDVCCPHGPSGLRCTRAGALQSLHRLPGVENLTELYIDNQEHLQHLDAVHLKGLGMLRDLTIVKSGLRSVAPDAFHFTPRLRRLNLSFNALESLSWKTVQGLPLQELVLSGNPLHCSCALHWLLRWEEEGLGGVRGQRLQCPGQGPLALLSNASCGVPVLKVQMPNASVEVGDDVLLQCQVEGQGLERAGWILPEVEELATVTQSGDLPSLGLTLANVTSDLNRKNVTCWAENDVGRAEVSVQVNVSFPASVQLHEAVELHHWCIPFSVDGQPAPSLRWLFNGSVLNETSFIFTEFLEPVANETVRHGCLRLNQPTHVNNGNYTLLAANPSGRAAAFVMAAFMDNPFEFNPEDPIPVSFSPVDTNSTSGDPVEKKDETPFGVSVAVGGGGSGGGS

Binder | kon [2] [M⁻¹ s⁻¹] | Kd [3] [nM] | koff [3] [s⁻¹] | kon [3] [M⁻¹ s⁻¹] | other results
B1 |  |  |  |  | Kd [1]: 7.8 nM; koff [1]: 0.003 s⁻¹; kon [1]: 380000 M⁻¹ s⁻¹
B2 | 110000 |  |  |  | Kd [2]: 2.1 nM; koff [2]: 0.00022 s⁻¹
B3 |  | 0.42 | 0.000198 | 471000 | 
B4 |  | 0.161 | 6.32e-05 | 394000 | 
B5 |  | 0.142 | 5.48e-05 | 387000 | 
B6 |  | 0.472 | 0.000396 | 838000 | 
B7 | 160000 |  |  |  | Kd [2]: 0.36 nM; koff [2]: 3.6e-05 s⁻¹
B8 | 270000 |  |  |  | Kd [2]: 0.25 nM; koff [2]: 6.9e-05 s⁻¹
B9 | 210000 |  |  |  | 
B10 |  | 0.129 | 4.43e-05 | 343000 | 
B11 |  | 0.154 | 9.01e-05 | 585000 | 
B12 |  | 0.773 | 0.00038 | 492000 | 
B13 |  |  |  |  | Kd [4]: 0.013 nM and 0.0066 nM; koff [4]: 0.00017 s⁻¹ and 0.00016 s⁻¹; kon [4]: 1.3e+07 M⁻¹ s⁻¹ and 2.4e+07 M⁻¹ s⁻¹; Kd [5]: 3.7 nM and 2.7 nM
